Assay results reported in patent CN112972675A.

Molecular target: 人PD-1 (程序性死亡受体1) (human) (UniProt Q15116)
Assay: flow cytometry receptor occupancy on patients' peripheral blood T lymphocytes (CD45RA-); bound toripalimab detected with PE-labelled anti-human IgG4 Fc, total PD-1 after saturation with toripalimab; dose groups 1, 3 and 10 mg/kg Q2W

UniProt Q15116, sequence (Q15116 25-288): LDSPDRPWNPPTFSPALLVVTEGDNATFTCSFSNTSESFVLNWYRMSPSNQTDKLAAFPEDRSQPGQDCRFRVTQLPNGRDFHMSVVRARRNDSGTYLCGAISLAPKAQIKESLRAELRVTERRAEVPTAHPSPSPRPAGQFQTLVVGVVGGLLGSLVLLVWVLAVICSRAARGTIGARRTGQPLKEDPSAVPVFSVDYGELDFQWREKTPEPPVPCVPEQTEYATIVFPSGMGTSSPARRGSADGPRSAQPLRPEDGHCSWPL

PD-1受体占位率(RO): > 80%
Substance: 特瑞普利单抗(Toripalimab) (antibody)
